The labels stand for the following.
B1: turkey lysozyme (protein, UniProt P00703 19-147, looked up)
Lysozyme C: KVYGRCELAAAMKRLGLDNYRGYSLGNWVCAAKFESNFNTHATNRNTDGSTDYGILQINSRWWCNDGRTPGSKNLCNIPCSALLSSDITASVNCAKKIASGGNGMNAWVAWRNRCKGTDVHAWIRGCRL
notes: test protein

This data set can be described thus: Resonant frequency shift of coaxial resonator coupled to protein solution versus PBS buffer (S11 return loss). The settings on record: protein solution in PTFE tube; reference PBS pH 7.4; input test signal approximately 1 GHz, 100 KHz band. The data set is classed as physicochemical. The procedure:
Using the systems and methods of the present invention, several experiments were performed to detect and identify molecular events in a solution. […] The vector network analyzer used was model number HP 8714 manufactured by Agilent Technologies, Inc. (Palo Alto, Calif.) The computer is an HP Vectra computer (Hewlett Packard Company, Palo Alto, Calif.) executing a graphically user interface (LabView® platform) to control the operation of the network analyzer and to display the resulting data. The coaxial resonator 122 illustrated in FIG. 3A was used in the experiments to illuminate the reference and test samples. […] The PTFE tube 470 is used to transport the reference and test samples to the detection region of the resonant test assembly and measures 0.031″ I.D., 0.063″ O.D., wall 0.016″ in cross-section dimensions.
The proteins used for the experiment included bovine serum albumin (BSA), ribonuclease (rnase), urease, myoglobin, fibrinogen (type I-S, bovine), chicken lysozyme (egg white), and turkey lysozyme. Phosphate buffer solution (PBS, pH 7.4) was purchased from Sigma (St. Louis, Mo.) and used as the reference sample.
In the reference measurement, PBS buffer was introduced into the tube and transported to the detection region, and a S11 (return loss) measurement of the resonator was taken. In the illustrated example, the measurement was taken at 1 GHz over a 100 KHz band. From the measured S11 response, the resonant frequency fres and Q-factor of the resonator were computed and stored, as described above.
Next, each of the aforementioned protein solutions were introduced into the tube and transported to the detection region. The resonator's S11 response was measured (over the same frequency range as above) and the corresponding resonant frequency fres and Q-factor parameters derived therefrom. Subsequently, the difference in the resonant frequencies Δfres is computed. This quantity was subsequently plotted versus the resonator's measured Q-factor when electromagnetically coupled to the test sample. FIG. 6 illustrates this mapping.
Regarding chicken lysozyme, the “change in resonant frequency of the resonator (relative to the PBS buffer)” value (“change … (relative to the PBS buffer)” for short) is listed as about 6.5 KHz.

For the molecule urease, the “change … (relative to the PBS buffer)” value was about 2 KHz.

For fibrinogen, the “change … (relative to the PBS buffer)” value is “approximately 1.75 KHz”.

Turning to myoglobin, the “change … (relative to the PBS buffer)” value is listed as about 4 KHz.

B1: the “change … (relative to the PBS buffer)” value is on record as about 6.75 KHz.
